For this assay, the target named is APC-TMR (Mus musculus) (UniProt Q61315). Briefly: TIRF microscopy in vitro motility assay.

Take APC-TMR, Q61315 1-2845: the stoichiometry N (in general, the number of molecules, sites or subunits per partner or assembly) worked out at 2.
